Measurements as given in a protein production outcome set (Wang et al. 2014).

assay: label from the status in PepcDB records

Sequence	protein production
MRLLISLIAGALFGGGLFVSGMTDTRKVQGWLDVFGDWDPTLAFVMGGAILPMLLAWRLTEGRKPLAGGSFPALPRPEMDHRLITGSVLFGMGWGLAGLCPGPAIASLSYGGVGGLIFLVAMLAGMAVAPRVGTQLDRLAATA	failed
MRLNHNSYEIFDFMRSRSAIGVLSKIIITIPPINLRMIIGVMGPEGSYSERAAKLWARKNGLRGAEFHYFADIEDAFLAAVGGKTDISVVPVENSIEGSVGVTLDLLLENEAVIIGEIVVKIEHCLLSKGEPEKIRVILSHPQGLAQCRHFLKTHFPEAELRSTGSTSHAARLAGEFEEMAAIASPEAAERYGLKILLSNVQDRKENHTRFIVVRGGEKVLSGKIKGKADSGEKLNTVFGRNAEHKLCSETETGTENSSSYAFKTSLIVYLEKDRPGALYEPLGFFAKRGINLTKIESRPSKKELGDYYFYIDLEGNISDVLIKDALEDIKSKASKKSRSSTLKVLGSYPAFKK	failed
MRLQELVLVKISLVFLWLIGFVFLQRSEENGFEEPNNGEELSWDDLEREAASNISSKRSHAERSHQHESFTKGDELSGDLYELWRQEQNSIAARLDKELKSRWELDELIEEQLSRYQSHYDNSMVSTFLKDVSNLVLPTWIPPHELAAVAWLGDWRPTSILDLVRILAAQNPSFSLSESSLRVLSQLLREIRIEEAVIDEEYAEIQATGVLYLPFSPLCNTRLHEEALRSVQELFGNIHKVISKAQRLRYKVLELVMKKLLNQTDTAEFVVAFAGIQDAIHQFGEQKKLRKIYPAVPSPLKGSGSSS	not failed
MRLSISLGESPCISSLKVRGFTASPQTPNLSISVIVTAFNRREYLRYALLSLKNQEADSFEVVVSKNFSDRVTDKFCSENGFINVTTDSSRSGERVYDALRSSHGDFILFLDDDDIFRRTKISRVSDVISKRNVAFYRNAIFPVTVDGVIATHYQPQMHDPLYLILERVSDVRLLHRHACDFNSSSMGISRSMLDSHASDLRKINLAVDTFYFALAASSRMPLFCDSMIESIYRIMPSSTSRDLRDFYLFSRFERSFLRRYVPDLERIAEIVEGSPAKPVIGRMLSLYKILQYVFEEDRVNLKPSPLDRVRFLLERPFPYSLLYSRIFRDAAMRSEFRRENRIVYGNADRRRRLEHHHHHH	not failed
MRLVEIGRFGAPYALKGGLRFRGEPVVLHLERVYVEGHGWRAIEDLYRVGEELVVHLAGVTDRTLAEALVGLRVYAEVADLPPLEEGRYYYFALIGLPVYVEGRQVGEVVDILDAGAQDVLIIRGVGERLRDRAERLVPLQAPYVRVEEGSIHVDPIPGLFD	not failed
MRLVIHGKNIDITDGIRSYLNQKIERATSHFQNVINEVDVHLSVARNRSTAPKQTAEVTVFVNGSVIRAEESSENLYASIDLVADKIARKLRKLKEKRQDKSRAKDTNSVVEPEVVTDLVGDRTPQLPEQVVRMKYFAMPPMTIQEALEHLEMVDHDFYVFRNRDTGEINVVYERNHGGYGVIQPRPTSNNHHHNTADAAAKATAKAGPLEHHHHHH	not failed
MRMNMKKISLSLLTLGVLSGLSINASALPADFPVMPAATAPVSQYVTAVNADSSITFRLFAPTAKQVSVFTGSTPDSIVSHAMTKDEAGVWSFKTPVQAPNLYEYFFSVDGFRTIDTGTAFTKPQRQVNTSLILVPGSILDVRQIPHGELRTLTYHSNALKSERQMYVWTPPGYSESSKPLPVLYFYHGFGDTGASAVVQGRIPQMMDNLLAEKKIEPMLVVIPDTETDVPGIIPEEYPPQERRKVFYPRNALAADRELIHDIIPAIGKRFNVRQDANGRALAGLSQGGYQALVSGMSHLDHFGWLATFSGVTTETVPNMAVAAQLERPEQINQQLKNLTVVIGETDNITGKDIAGLKTMLEQKNIRFDYTHYPNLGHEMDVWRPAYSEFVQKLFK	failed
MRNDLFNREKSRQLSLTPRTEKIEVKHVGKTDPGTVFVMNKNISTPYSCAMHLSEWYCSKSILALVDGQPWDMYKPLTKSCEIKFLTFKDPDPREVNKAYWRSCAMMLGCVIERAFKDDYVVSLLRAPEVPVIAGAFCYDVTLDKRLDEWMPTKENLRSFTKDAHALIYRDLPFETLDVDARVALEIFQHNKYKVDFIEEKASQNPERIVKLHRIGDFIDVSEGPLIPRTSVCFQYEVSAVHNLNPSQPNLIRRFQGLSLPTHLRAQFTIWDKLVGRSRKMVTEDEVRQTENTESTQ	failed
MRNGRLLEACDDIPEEDIPSRRYEASMCYLRGLCYAKQNAFDRAKEAYKDALRIDVQCFEAFSQLVKNSLMSPDEEDEFMQSLAFDSIRAPGDDPDMEDEPADYVHMLYQTQLSKYRNPQAFNTAIESLSTHYGLENNADILLAKADLLYTQCRFKDALAITESILMDDKYNFAVYPIHLACLYELRKTNVLFLIAHELADTHPDEPCTWLAVGIYYFTTGKIADARRYFSKASMMDANFGPAWIGFAHTFAAEGEHDQAVTAYSTAARLFTGTHLPQVFLGMQNHAMNNMTAAEEFLKTAYSLCKTDPLLLNEMGIVLYHQDRLKEAVKMFDQVMAFGTAEMSRASEKRRMETMLSKLLQSLRPSTTSAIFSRRSTILPL	failed
MRNHKQSDRVLNLPAGYFGIVLGTIGMGFAWRYASQIWGISHWPGDIMVILAMIIWALLTLAFLSRLVRFPHSVMAEVRHPVMSSFVSLFPATTMLVAIGFVPWYRPLAVALFSVGVVIQLAYAAWQTAGLWRGAHPEEATTPGLYLPTVANNFISAMACGALGYNDAGLVFLGAGVFSWLSLEPVILQRLRSCGELPAVLRTSLGIQLAPALVACSAWLSVNGGEGDTLAKMLFGYGLLQLLFMLRLMPWYLSQPFNASFWSFSFGVSALATTGLHLGHGSESGLFHILAVPLFIFTNAIIALLLVRTFLLLVQGTLLIRTERAALLKTEEKNDRS	failed
MRNKKLIPFEVIEKAVAGEPEAIELVLQHYSPRIKYLSKYRGYINDDIQDRLKTQLIKAILQFRFDR	failed
MRNMNIYDSLLGAVHSEYDVLMLIKKSERGEVSLVRHRDSGTRYIFRHFYGNSEVYQKLLNVSCPNLPQIMEVGEKDGKTALLEEYVQGDTLSEILEGGLLTIAESKQIARQLCSALWVFHSMGVVHRDVKPDNVIIRGKEAVLIDFDASRIYKSTIQEDTQILGTTGFAAPEQYGLSQSDGRADIYALGVLLNIMLTGEHPSRKLAGGRMGRIVQRCTMVNPSKRYKNILHLLEVL	failed
MRNPHSNGNLRKLEADGGGEATEENGFVNGVILGLDGGATSTVCVCVPFFSFGERFPDPLPILGRAVAGCTNRNSVGETAARDSLEQVISEALVQSGFDKSDVRGVCLGVSGVNHPSDQEKIENWIRDMFPSHVKVYVQNDAIVALASGTMGKLHGCVLIAGTGCIAYGFDEDGKEARASGGGPILGDWGSGYGIAAQALTAVIRAHDGRGPQTMLTSTILKALGLSSPDELIGWTYADPSWARIAALVPQVVSCAEAGDEISDKILVDAAEDLALSVKAVVQRLGLCGKDGTASFPVVMVGGVLNANQKWDIGKEVSKRINRYFPGAQTIIPKVEPAVGAALLAMNFLSS	failed
MRNPSEDHMMRTPYQIVADHYAASDRHDPAAMMADIAPAIEWTEMAGFPCAGTYRSADEIVRNVFRRLGEEWDGYTFKLDALHDAGDTVIGVGRYSGTYRRTGKSFECRVAHVWRVDAGKIVHFEQFTDTLLVAQAMQP	not failed
MRNQFDLELHELEQSFLGLGQLVLETASKALLALASKDKEMAELIINKDHAINQGQSAIELTCARLLALQQPQVSDLRFVISIMSSCSDLERMGDHMAGIAKAVLQLKENQLAPDEEQLHQMGKLSLSMLADLLVAFPLHQASKAISIAQKDEQIDQYYYALSKEIIGLMKDQETSIPNGTQYLYIIGHLERFADYIANICERLVYLETGELVDLN	not failed
MRNSMMTIYPHLIICPHCDSVHHYRALNPGEAARCTRCQATLYRSGWINTGHSLALIQTAAIVFFIANSYPVLTVSFHALQNTATLWQAALALANGATLPLAIGCFFILIMAPFLQIMLTGWVLMFANKDRCAPGFIPVMKILLWLRPWSMLEIATLGFLIAAIKLSGFMQVMPGAGCWALAALMLLLVVVNSIDLRPLWSLVPTDSNHSVVRHEK	failed
